Experimental data taken from patent US20160291016.

Target: T1, phosphatidylinositol(4) phosphate 5 kinase type 1 gamma (PIPK1γ) of mouse osteoblasts, O70161
T1 chain: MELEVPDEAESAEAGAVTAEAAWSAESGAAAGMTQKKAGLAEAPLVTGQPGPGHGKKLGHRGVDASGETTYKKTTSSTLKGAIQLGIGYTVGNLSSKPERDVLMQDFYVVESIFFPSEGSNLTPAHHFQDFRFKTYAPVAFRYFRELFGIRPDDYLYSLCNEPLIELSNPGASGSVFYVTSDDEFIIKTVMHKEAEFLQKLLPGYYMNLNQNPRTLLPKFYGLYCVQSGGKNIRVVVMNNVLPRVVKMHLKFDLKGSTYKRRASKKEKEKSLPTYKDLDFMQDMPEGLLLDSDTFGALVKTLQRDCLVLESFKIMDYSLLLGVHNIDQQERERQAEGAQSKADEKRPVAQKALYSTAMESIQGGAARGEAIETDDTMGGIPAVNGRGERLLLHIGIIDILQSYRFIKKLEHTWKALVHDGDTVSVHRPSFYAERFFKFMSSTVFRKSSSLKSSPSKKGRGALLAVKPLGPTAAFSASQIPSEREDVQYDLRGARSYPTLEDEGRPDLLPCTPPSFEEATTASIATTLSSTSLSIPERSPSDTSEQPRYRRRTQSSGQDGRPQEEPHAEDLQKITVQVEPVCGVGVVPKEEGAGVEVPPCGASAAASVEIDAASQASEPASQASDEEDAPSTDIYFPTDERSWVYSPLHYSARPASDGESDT

B1: protein tyrosine phosphatase µ (PTPµ) of mouse osteoblasts (protein)
chain: ETFSGGCLFDEPYSTCGYSQADEDDFNWEQVNTLTKPTSDPWMPSGSFMLVNTSGKPEGQRAHLLLPQLKENDTHCIDFHYFVSSKSNAAPGLLNVYVKVNNGPLGNPIWNISGDPTRTWHRAELAISTFWPNFYQVIFEVVTSGHQGYLAIDEVKVLGHPCTRTPHFLRIQNVEVNAGQFATFQCSAIGRTVAGDRLWLQGIDVRDAPLKEIKVTSSRRFIASFNVVNTTKRDAGKYRCMICTEGGVGISNYAELVVKEPPVPIAPPQLASVGATYLWIQLNANSINGDGPIVAREVEYCTASGSWNDRQPVDSTSYKIGHLDPDTEYEISVLLTRPGEGGTGSPGPALRTRTKCADPMRGPRKLEVVEVKSRQITIRWEPFGYNVTRCHSYNLTVHYGYQVGGQEQVREEVSWDTDNSHPQHTITNLSPYTNVSVKLILMNPEGRKESQELTVQTDEDLPGAVPTESIQGSAFEEKIFLQWREPTQTYGVITLYEITYKAVSSFDPEIDLSNQSGRVSKLGNETHFLFFGLYPGTTYSFTIRASTAKGFGPPATNQFTTKISAPSMPAYEFETPLNQTDNTVTVMLKPAQSRGAPVSVYQIVVEEERPRRTKKTTEILKCYPVPIHFQNASILNSQYYFAAEFPADSLQAAQPFTIGDNKTYNGYWNTPLLPHKSYRIYYQAASRANGETKIDCVRVATKGAVTPKPVPEPEKQTDHTVKIAGVIAGILLFVIIFLGVVLVMKKRKLAKKRKETMSSTRQEMTVMVNSMDKSYAEQGTNCDEAFSFMGTHNLNGRSVSSPSSFTMKTNTLSTSVPNSYYPDETHTMASDTSSLAQPHTYKKREAADVPYQTGQLHPAIRVADLLQHITQMKCAEGYGFKEEYESFFEGQSAPWDSAKKDENRMKNRYGNIIAYDHSRVRLQMLEGDNNSDYINGNYIDGYHRPNHYIATQGPMQETIYDFWRMVWHENTASIIMVTNLVEVGRVKCCKYWPDDTEIYKDIKVTLIDTELLAEYVIRTFAVEKRGIHEIREIRQFHFTGWPDHGVPYHATGLLGFVRQVKSKSPPNAGPLVVHCSAGAGRTGCFIVIDIMLDMAEREGVVDIYNCVRELRSRRVNMVQTEEQYVFIHDAILEACLCGDTSIPASQVRSLYYDMNKLDPQTNSSQIKEEFRTLNMVTPTLRVEDCSIALLPRNHEKNRCMDILPPDRCLPFLITIDGESSNYINAALMDSYKQPSAFIVTQHPLPNTVKDFWRLVLDYHCTSVVMLNDVDPAQLCPQYWPENGVHRHGPIQVEFVSADLEEDIISRIFRIYNASRPQDGHRMVQQFQFLGWPMYRDTPVSKRSFLKLIRQVDKWQEEYNGGEGRTVVHCLNGGGRSGTFCAISIVCEMLRHQRTVDVFHAVKTLRNNKPNMVDLLDQYKFCYEVALEYLNSG
- tyrosine phosphorylation of PIPK1γ (immunoprecipitation with PIPK1γ antibody, blot with phospho-tyrosine antibody): Phosphorylation levels of PIPK1γ were higher in osteoblasts from PTPµ^-/- than in those from WT mice
